# In US20250059285A1 (ARGENX, published 2025):
# T1: human Gal10-His (human, UniProt Q05315 2-142, limits assumed)
# T1 construct: also called hGal10-His; human Gal10-His tagged; not shown: His tag
# T1 sequence: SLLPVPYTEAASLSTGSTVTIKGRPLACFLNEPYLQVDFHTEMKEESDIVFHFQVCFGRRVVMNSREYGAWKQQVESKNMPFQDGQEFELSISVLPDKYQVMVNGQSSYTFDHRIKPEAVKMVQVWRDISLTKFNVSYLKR
# T2: recombinant human Charcot-Leyden crystals (crystalline galectin-10) (human, UniProt Q05315 2-142, limits assumed)
# T2 sequence: T1 sequence
# B1: g23H09 (Fab) (Fab, V domains shown)
# VH: EVQLLESGGGLVQPGGSLRLSCAASGFTFRSYDMSWVRQAPGKGLEWVSAIAQFQHWTYYADSVKGRFTISRDNSKNTLYLQMNSLRAEDTAVYYCATTHGIGTLGFGSWGQGTLVTVSS
# VL: SYELTQPLSVSVALGQTARITCDGNNIGSKSAQWYQQKPGQAPVLVIYADEYRPEGIPERFSGSNSGNTATLTISRAQAGDEADYYCQVWDGSAAVFGGGTQLTVL
# notes: same VH/VL
# Experiments:
# [1] = target: T1, human Gal10-His; test: SPR Biacore 3000, hFab on captured human Gal10-His; column head prints (M), the text gives nM
# [2] = target: T1, human Gal10-His; test: SPR, overview table of lead Fab candidates
# [3] = target: T3, cynomolgus Gal10-His (WGS isoform) (cynomolgus); test: SPR, summary table, cynomolgus_WGS Gal10
# T3 construct: also called cynomolgus antigen
# [4] = target: T1, human Gal10-His; test: SPR Biacore 3000, Fab periplasmic extract on Gal10-His-coated CM5
# Experimental: The binding properties of the Fabs (periplasmic extract) to human Gal10-His were analyzed by SPR with a Biacore 3000 instrument. For this purpose, the diluted periplasmic extract was applied on a CM5 chip coated with human Gal10-His. As a positive control, a 20 nM injection of the purified g7B07 clone in the human Fab backbone was included at the beginning and end of the run.
# The binding capacity of the Fab periplasmic extract was analyzed by SPR technology using a Biacore 3000. Briefly, diluted periplasmic extracts were injected on CM5 chip coated with 2500 RU of Gal10-His. The amplitude of the binding (Rmax), the dissociation (off-rate) of each clone, as well as the off-rate fold change compared to the controls (g7B07 and g7B07_N53A) are indicated. Clones g20H09 and g23H09 had similar or better off rate compared to the control g7B07 (Table 10). The randomized part of the CDR2 sequence is underlined (Table 10).
# [5] = target: T2, recombinant human Charcot-Leyden …; test: cell-based or functional assay
# [6] = target: T1, human Gal10-His; test: summary of periplasmic extract screening (BLI or SPR)
# [7] = target: T1, human Gal10-His; test: competition ELISA on coated Gal10-His; hFab 20 ug/mL, competitor g7B07-hFab-Biot, streptavidin-HRP
# Experimental: An epitope binning analysis of the humanized Fab clones was carried out in comparison with the humanized Fab of g7B07.
# For this experiment, a sub-optimal concentration of the biotinylated clone g7B07-humanized Fab was added to the Gal10 coated plate and pre-incubated with the selected clones. The percentage competition with g7B07 was then determined (Table 17). Motavizumab (Mota) in a human Fab backbone was used as a negative control (0% competition). Clone g7B07 was used as the positive control for competition and was therefore set as the 100% competition value. The anti-human specific clone 1D11 (binding to Tyrosine 69 residue) was included in the tested panel as a negative control for competition with 7B07 for Gal10 binding because it was known that clone 1D11 binds to the opposite side of Gal10 (including Tyrosine 69).
# [8] = target: T1, human Gal10-His; test: SPR Biacore 3000, hFab on captured human Gal10-His
# Source text: For this purpose, two approaches were used. In the first, two concentrations of the selected clones were applied on cynomolgus (WGS isoform) Gal10-His capture on a CM5 chip coated with a monoclonal anti-His antibody. The second approach involved a serial dilution that was applied on human or cynomolgus (WGS isoform) Gal10-His in the same set-up.
# Further characterization of the cynomolgus cross-reactivity of these clones highlighted g24F02_N53A and g23H09.
binder,measurement,setting,value
B1,Kd,[1],5.34 nM
same,Kd,[2],5.3 nM
same,koff,[2],0.0031 s⁻¹
same,Kd,[3],9.9 nM
same,koff,[3],0.0095 s⁻¹
same,Fold off-rate compared to g7B07,[4],0.4 fold
same,koff,[4],0.0027 s⁻¹
same,"recGal10 crystal dissolution EC50 (T2 h), Assay 1, nebulized",[5],297 µg/mL
same,"recGal10 crystal dissolution EC50 (T2 h), Assay 1, stressed (4 W at 37 C)",[5],361 µg/mL
same,"recGal10 crystal dissolution EC50 (T2 h), Assay 1, unstressed (T0)",[5],252 µg/mL
same,"recGal10 crystal dissolution EC50 (T2 h), Assay 2, nebulized",[5],209 µg/mL
same,"recGal10 crystal dissolution EC50 (T2 h), Assay 2, stressed (4 W at 37 C)",[5],191 µg/mL
same,"recGal10 crystal dissolution EC50 (T2 h), Assay 2, unstressed (T0)",[5],190 µg/mL
same,"kd, fold compared to g7B07 (BLI or SPR)",[6],2.5 fold
same,% Competition against g7B07-Biot,[7],94.3%
same,Mean OD value,[7],0.31 OD
same,fold better affinity than g7B07,[8],1.7 fold
same,fold better off-rate than g7B07,[8],1.9 fold
